From the domain aggregation screens of Martell et al. (2025)

Assay: soluble fraction after stress (log2 fold change); higher = more stays soluble; pooled small domains, quantitative proteomics
Settings: stress: 50 degC
Outline: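 Each library was heated to 50°C as a stress step. The libraries, made up of small protein domains, were pooled and analysed at high throughput by quantitative proteomics. The reported value is the base-two logarithm of the fold change in each protein's soluble amount after stress, taken as a measure of aggregation propensity. The higher the value, the more protein stays in solution.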

Sequence | soluble fraction (log2)
HMHPKTPDELLALMSEEQRGQIEQLAKLVLMAVSYSGASYYDAVTTMYPRMSEERRRIITHVLNTASP | -0.652
HMDVAWDAIKAKLKEVVDAEDKAHPLNDDQIVKALGESGITIARRTIAKYRDLLGIPPARKRKA | 0.0649
HMAEWLFDARKIPDEVMNYLRRIAVQAIEEKHYSPELVADLLGISRSSIYDWLNWYRNGGEEDLDTRKA | -0.613
HMITGSIQPKNGKYYAVLNLYDHTGKRRPKWVSTGYTVKGNKKKAQEVLNELTRRYSAQLPPSK | -0.512
HMSSSDYDVYNKAINLMLNLLKEPKSIEEVTASLNITKSQAITWINRALNEGKIIKTNRPVRYVVNN | -0.596
HMSDAPLLSIRSLAVAFDGTRVVDGVSFDVARGEVVALVGESGSGKTVTGLSLLDLVPPPGRRVGGEV | 0.0423
HMFNTWLGEIRSNTGANVRSGPDASAAIVDARPNETVVRVIGQSGNWLQIGDKQFVAQSLVAP | -0.0505
HMAMDYTVVHSDRRTIAIQIQRDGRVVVRAPYAATAEDIRRVVDSHRDWVEKTVRRQQEQLAAS | -0.0261
HMPDIFDRGTAHITDAASGVAITFTRTFRIPPEVTMTHKGGTVVAIARLVGSITTGGFTAVLENT | -0.264
HMLTWNQLGLITKPVVFLDGTGYYARLFEAFEHMISTGFVKENYRAMMNRATSVEEAVRIASSPAPKVD | -0.0676
HMNKPKIIINSVDDSVFSDYVKDSLSIAEVARSIGIDNNKINTSVYREIHKRIDSLKLDTSHFTGGAWN | -0.174
HMGPTGGLTPHIAIADKRASEAIEFYKQAFGAVEQVRMPAEDGVRLMHAHLLVNGSSLMMHDDFPEYSGQ | 0.0526
HMIIVMKRNATETQIDHVVRWVESIGYRAHRSNGTEQTVVKAVGGERGGEELKYLAALSGVEKVVPIR | -0.0291
HMLIIMNSDATKEQVDHVTSRVREAGFKDHIMPGAGKVAIGVTGTGDYDQTKLHLEILPGVFKIMRITK | 0.0895
HMEIMELPEYVVRSGSGLDAFREKWDLWDQGLMYDLKDKRAVFPIFIDGVMIDAVGRALAGAEPKWLRYTG | -0.165
HMTNADRYIGQEATVTEKISNELSTGAVRIGGLVWTARTVDNSEAEEGERVTVEAIEGAKLLVKRR | -0.0108
HMNEKEAEEAAEAQTEVPDVTGMAPAQAKNMLYQAGLSSEYRGEGETVSRQLPPAGETVNRGTKAVLYL | 0.0278
HMQTEFVISSGEQPKRLDVFLLQREPYLSRAALQRMIAAGWVRVNNHLAKSSQRIKAGDVIVFD | -1.41
HMLTTVAAQRAALHQEEDITKLREIILKLVPFWGLDGGAYADKETSIQLERQYRESFDQAVSAARRSGQA | -0.303
HMVRKGEINFDQLSVRARNALRNMNILFEKEILKLTEYDLKSIPNLGVKTTNELLSYIKRLQTNQKEE | -0.191
HMKGPAFAKIDLTQLPAGLTSFLNTNAAGFKLDYAVAITKDSVIIEYHVGVTIGTAKKEFHLDPNFQLLP | -0.36
HMFTKSNLEKLSNSELILKAIDSGNYSKIEFGGSEALNPDVPSYKKDLKNREELIEILSEMGM | -0.0323
HMEPQLVKSFDVQTELTYDQFLSKYPESHTLGRLLVQPEPIPFEPYKNIPGITPEKLLALHAKHLEAR | 0.0728

Sequence | soluble fraction (log2)
HMDQEDAYMQVRQVFDTLLVSELSKRIFAWRFFEGKSFAEWPGAESQKFLYDTFNRILLIISAKIRRKNA | -0.0448
HMLSGGEVKRIEIATILARKSGLMIFDEPEAGIDLWSFARLVETFEDIRSNTSGSLVIISHQ | 0.00488
HMNRKILVLLAGKEQITDNVSVMQSIHRYAFINTATINKAQHEILIEKEEIRQEALTLIHEFLK | -0.0593
HMHDHKTRLQELAAQRFGSAPSYLLTADGPAHDRRFHASVEVGGRSFGPGTGKSKKRAEQVAAHIAWDALS | 0.394
HMELRSPMPGLIIEIPVSKGDIIKKDQSLIILEAMKMENVLTSPINGKIADIKVNVQDTVEKNNLLITFEN | -0.164
HMSNVKVYPNPTSGKLTIDAENYKGVEVYDTSGRLIVKSELRTIDLEEQSKGLYLLKVNANGTTQEFKVFK | 0.0145
HMLAEEAFNKQAATAGYVYRDGSYHPAASVAQYDAMPRNYRTNTMAQELSRSQVESQLQQSQ | 0.436
HMGLLEMPSERERQVLVLIAEGLSNKEIAARLYLTEGTVKNHAHSLYAKLNVTTRTLAIARARQLGI | -1.54
HMEIDMQEGIKTIILMMKEHNITPSEAMKIYKSANGDIHYISKIYNHFKNKGADNFVALMIKMVKPGEFIE | -0.00191
HMSEVPAAVLVTGGSINLREAPSTDATIIDVAQVGEKMTVLAEKNSWYQVSRGGRNVWVASWVVDPLT | 0.208
HMAAPPPLSDYRNMQEAEHIRNILLQHHGNVRRAAAALELSRPYLYQKMKQLGINIAELRELSLSHSS | -0.559
HMQISGSEELEKIVQTVLEKNTDVVEEYKSGKTKVFAFLMGQVMKESRGKANPRLAKDILEKFLA | -0.0362
HMDTSKIDYSEFITMLDKGEVESVVLKSDTLTVTLKHGTGMAAQTKTVTLMEDLSELTKRLEKAGVKSFDK | 0.306
HMNKWMQLASEEDKKLFNEAPKEIQDSITESAKFFDIRTKADVDTFWANTGLRQMKQQAMLNESFVNEY | -0.0275
HMENMETSDIVARYSNMPGGIIEAFHEIVDRHGFLSQEAIIEAARGFGISVAEAYGVATFYSMFS | -0.336
HMLPEGIENGDVLTRTDALDYRKWLVTGNQKRIFASTASFYGENFNYSEVKAVSDRVLDAIPDGEPV | -0.0574
HMNDRERIGKRIAQLRMEAGISQYKLAELTGLAPGNIARIETGKYSTGIDILSKIGDALGYQLDFI | -1.04
HMKSPVKLILRGSIYHIKISAVVNGQRIFVRESSHTTDKREAEQYANKRFAQLVEETEFRTN | -1.11
HMELSSRQAMIVDIVRKYEPITSEQIADKLNLTRSALRPDLAVLTMIGILEARPRVGYFFTGK | 0.141
HMFPNLTNEEQQVMKVLAKTNDLQINMLSVQSNLPIARLTALLFSMEMKGVVKTLAGGVYHLL | -3.23
HMTYFDIAPELLTVYKEINDIPRDINQIVRKTGLSINEVSYKTMILQLEDKIVELPGQRFIRNS | -1.99
HMNKTVKIPNVSNLSREDAESVLKENGISVNSEVKQIESDTIEKGKVVKTDPSIGTSVKKGRSITIYVSSG | 0.0637
HMSLQNTMANFAGGVLVLFLKPFKAGDYIVTKDGEGTVASIGLVYTTLLTIENKRIVIPNSSISNSPITN | 0.0055

Sequence | soluble fraction (log2)
HMAPAYELTEEETKIIEILKANENIDLNELKSQAALSGKKWDKSMKNLAKYNLTKVTVDGDAKTVAYLA | 0.0932
HMKSSYSGNFKQNVVEYMHNNHLSATETANHFKLGGGSVVLRWERIYYEEGPQALYEERRGR | -1.7
HMANAGKFDSDMGEKINFPGNRVSLTPSELEAARELAAIMGDRFFSQLIPTTSKVTVTEMLQSLK | 0.3
HMREPIPVPSRPIRAGDLVEIPGTNRPAEVTAVKGDRLVLKAGVLSMTVKNDEVRLIEDDERAAM | 0.0715
HMEFDTEFVLRQAMHAFMQYGYAKTSMQKLKEATHLHPGSIYAAYGNKKGLFLAATEQYQKDR | -0.0761
HMTSSVIIPKLIGKTEEEAKVALAGLNVQVLYETHGDQANGIVIKQSFEEGTKVIKGVSIVITVNKVS | 0.0698
HMVVVMNADAEADEIKRVKWNLEQMLFRTQVIYGVKRIVIGAIGDQREVDLSEIEQMPKVDKIVRISK | -1.4
HMNPSAFSEYSFELLQSALLKKKIDENLSNQTIARDAGVSEAFVQKVLTNNVKRPSVKNRVRMISYLGLD | -1.22
HMLSAEAAAARTAISTLSEDQQRVLGLSIQRGLVHEQIARATGLPLGTVKTHIRRGLIKVREALEAQAAG | -0.00728
HMIDHLPPQRAAVLAFLQRELVAGRSPSLAEIALAFGFASRNAAQKHVQALVADGLLEQATGRSRGLRLPG | -1.67
HMRYWVKSETDFLIENRGKYSYQEFADMLGRSYAVVYDKMHQLKIDYTKEELEIFDEKHKAQMREKQQR | -1.52
HMLSDEDMMELAIIENLQRENLNPIEEARAYESLIDKGFTHTEIADKMGKSRPYISNSIRLLSL | 0.162
HMAQTSAELIIEYLKRNDGFMELTDKSPADEIYETFGISKKNFKMAVGSLYKNRVIEIGQNGIRLVE | -0.216
HMAEELELFHRLISVTGVGPKGALGFLSQLKPQEIILAILSDDVKTLSKAPGVGRKTAQRVILELKDKF | -1.14
HMPSNVKIPDVTGKTVAQARSAIEAAGLKVGKEKDEYSDSAKKDSVIRTNPQAGTQRREGSTVDLIVS | 0.122
HMLSVTLTVLPQQAGERLDAFAAAESTLSRSAAAKLIEDGQITVNGARAAKNYRLRAGDVIEIDEPEPI | 0.00149
HMQMPDLTGKPRAEAVTTLAALGFTDVKFLDASAGDEPLDYVADQVVRTSPEAGAALASGQQITIYLAT | 0.101
HMANGTVKWFNTTKGFGFIAPETGGKDVFVHISAVERSGLTGLADDQKVTFDVEAGRDGRESAVNLAL | 0.0396
HMDTNVPVPNVNGMTLNQAKAALEAAGFHVAVNWLGEKSDNNSVISYEPNGSAAKGTTITITVIAQPEQDG | 0.0386
HMQNVKIKAEVKGEVISPGVYELDEESRIQDLIDASGGFSDKAYYDNINLSMKLKDEMVLVVYDKDKI | -0.163
HMAMNITQRHQEILAVIKQEKHITVSEISKLLGVSEVTIRKDFNYLEEKNLIYRHHGGASLNN | -1.58
HMGGEKLPAPVAGTLLRYSVAEGARVSEGQTVIILESMKMELEINTPKAGVIHFLAAVGAQVAEGDTLAEI | -1.82
HMATPSTGQVSVVRLNLRVSPSISSPVVTRLTQGDTVKILAASDDGRWYKVATADGRTGWLYTIYITAE | -0.37
